# From patent US20030219427A1, “TPL-2/COT kinase and methods of use” (priority 1998, published 2003)
# B1: p105498-969(ΔDD): recombinant p105 498-969 protein which lacks the p105 death domain (protein)
# chain: QDNLFLEKAMQLAKRHANALFDYAVTGDVKMLLAVQRHLTAVQDENGDSVLHLAIIHLHSQLVRDLLEVTSGLISDDIINMRNDLYQTPLHLAVITKQEDVVEDLLRAGADLSLLDRLGNSVLHLAAKEGHDKVLSILLKHKKAALLLDHPNGDGLNAIHLAMMSNSLPCLLLLVAAGADVNAQEQKSGRTALHLAVEHDNISLAGCLLLEGDAHVDSTTYDGTTPLHIAAGRGSTRLAALLKAAGADPLVENFEPLYDLDDSWENAGEDEGVVPGTTPLDMATSWQVFDILNGKPYEPEFTSDDSPVKTTSQAHSLPLSPASTRQQIDELRDSDSVCDSGVETSFRKLSFTESLTSGASLLTLNKMPHDYGQEGPLEGKI
# Molecular target: T1, Myc-TPL-2 MEK kinase activity (Rattus norvegicus, UniProt Q63562)
# T1 construct: made in house; host or cells: HEK 293 cells, transient transfection, anti-Myc immunoprecipitation
# Experiment: In vitro MEK kinase assay with GST-MEK1(K207A) substrate, Myc-TPL-2
# Assay type: biochemical
# Conditions: equivalent molar concentrations to p105498-969
# Protocol: Myc-TPL-2 or Myc-TPL-2ΔC were isolated by immunoprecipitation from lysates of transiently transfected 293 cells, as described above. immunoprecipitates were washed four times in Buffer A, followed by two washes in kinase buffer (50 mM Tris-pH7.5, 150 mM NaCl, 5 mM β-glycerophosphate, 2 mM dithiothreitol, 0.1 mM sodium vanadate, 10 mM MgCl2, 1 mM EGTA, 0.01% Brij35). Beads were then resuspended in 50μl of kinase buffer plus the indicated amounts of recombinant p105 protein and incubated at 4° C. for 30 min. […] The supernatant was removed, mixed with an equal volume of 2×sample buffer, Western blotted after 8%-acrylamide SDS-PAGE and probed with anti-phospho-MEK-½ antibody. Immunoprecipitated Myc-TPL-2 or Myc-TPL-2ΔC was eluted with Laemlli sample buffer from the remaining anti-Myc mAb beads and quantified by Western blotting.
# Only a small fraction of over-expressed Myc-TPL-2 is associated with p105, presumably due to titration of endogenous p105 protein. The effect of p105 binding on Myc-TPL-2 MEK kinase activity was investigated by incubation of TPL-2 imnmunoprecipitates with recombinant p105498-969 protein prior to in vitro kinase assay. MEK phosphorylation was assayed by Western blotting with anti-phospho-MEK-½ antibody. Control experiments confirmed that p105498-969 protein bound to TPL-2 in vitro. […]
# T1 sequence (Q63562 whole entry): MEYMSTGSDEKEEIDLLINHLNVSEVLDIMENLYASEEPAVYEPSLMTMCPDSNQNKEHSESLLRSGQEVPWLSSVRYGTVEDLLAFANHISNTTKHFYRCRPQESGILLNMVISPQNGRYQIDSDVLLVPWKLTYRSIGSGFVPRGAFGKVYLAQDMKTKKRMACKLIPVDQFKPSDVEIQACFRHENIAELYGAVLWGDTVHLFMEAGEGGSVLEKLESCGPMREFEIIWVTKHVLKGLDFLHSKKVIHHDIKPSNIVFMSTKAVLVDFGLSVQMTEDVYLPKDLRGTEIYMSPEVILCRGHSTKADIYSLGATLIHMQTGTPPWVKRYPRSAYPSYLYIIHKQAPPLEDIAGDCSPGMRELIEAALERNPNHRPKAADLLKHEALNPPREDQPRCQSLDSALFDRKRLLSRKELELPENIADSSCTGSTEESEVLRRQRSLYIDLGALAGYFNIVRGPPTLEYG
molecule,measurement,value
B1,effect on Myc-TPL-2 MEK kinase activity,did not affect
